Assay results published in article PMC2613339.

Biological target: protein phosphatase-1 alpha catalytic subunit (recombinant PP1α) (UniProt P62139)
Sequence of UniProt P62139 (P62139 whole entry): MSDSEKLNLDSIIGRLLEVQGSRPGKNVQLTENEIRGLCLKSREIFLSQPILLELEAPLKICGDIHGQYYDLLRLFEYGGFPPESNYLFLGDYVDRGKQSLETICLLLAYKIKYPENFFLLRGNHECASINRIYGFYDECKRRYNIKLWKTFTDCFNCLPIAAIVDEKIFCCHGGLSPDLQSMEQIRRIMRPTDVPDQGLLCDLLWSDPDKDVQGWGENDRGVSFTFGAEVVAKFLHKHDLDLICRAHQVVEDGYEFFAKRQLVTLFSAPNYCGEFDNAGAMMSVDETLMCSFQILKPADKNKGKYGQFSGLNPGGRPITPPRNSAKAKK

MAEAGAGLSETVTETTVTVTTEPENRSLTIKLRKRKPEKKVEWTSDT (domain or fragment) [Inh3(1–47)]
fold increase in IC50 of inhibition of PP1 activity, against Inh3(1–64): 3.5 fold
